Several values for one entry are separate records, joined by “and”; a condition that tells them apart may be missing. Equal values may be shown once.
Target: T1, ANGPTL3 (Homo sapiens, UniProt Q9Y5C1)
T1 construct: Angiopoietin-like protein 3 (ANGPTL3) is a secreted protein expressed in the liver; from tissue; host or cells: in vivo, human subjects; circulating protein secreted by the liver
T1 sequence (Q9Y5C1 17-460): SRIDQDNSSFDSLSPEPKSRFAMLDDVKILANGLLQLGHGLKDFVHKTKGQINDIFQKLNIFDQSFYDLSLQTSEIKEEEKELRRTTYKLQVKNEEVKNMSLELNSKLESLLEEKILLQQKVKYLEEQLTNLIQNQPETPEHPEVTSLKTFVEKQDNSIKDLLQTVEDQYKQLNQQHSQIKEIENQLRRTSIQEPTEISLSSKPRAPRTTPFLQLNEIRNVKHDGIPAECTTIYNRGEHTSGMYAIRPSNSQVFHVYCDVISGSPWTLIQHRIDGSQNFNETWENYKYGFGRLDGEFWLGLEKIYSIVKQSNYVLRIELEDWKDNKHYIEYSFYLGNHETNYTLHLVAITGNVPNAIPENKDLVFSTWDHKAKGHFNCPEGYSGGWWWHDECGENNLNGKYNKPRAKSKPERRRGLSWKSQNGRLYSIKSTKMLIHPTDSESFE
Test: Phase 2 open-label study of evinacumab in patients with homozygous familial hypercholesterolemia on concomitant lipid-lowering therapies
Format: in vivo
Details: for LDL-C, Mean of Percent Change from Baseline ± SE (%) / Non-HDL-C, Mean of Percent Change from Baseline ± SE (%) / Apolipoprotein B, Mean of Percent Change from Baseline ± SE (%): HoFH patients, 250 mg SC wk 0 + 15 mg/kg IV wk 2
Procedure: Patients: The nine patients (5 men, 4 women) were selected based on their genotypes and phenotypes. All presented a history of LDL-C >500 mg per deciliter or >400 mg per deciliter after portacaval shunt, premature atherosclerosis (8 of 9 with prior history of cardiovascular events) and severe xanthomatosis, and were homozygotes or compound heterozygotes for known FH-causing LDLR mutations (Hobbs, et al. 1992 Hum Mutat 1:445-66). Three patients were null homozygotes. All patients were on maximally tolerated lipid-lowering therapy.
Study Treatment: The patients were required to maintain their usual background lipid-lowering therapy and diet and exercise regimens throughout the study. All patients received a single open-label dose of evinacumab 250 mg subcutaneously in the abdominal area during the baseline visit and a single 15 mg per kilogram intravenous dose of evinacumab 2 weeks later. The sterile, lyophilized evinacumab drug product was supplied in a 5-ml single-use glass vial for reconstitution to a concentration of 100 mg per milliliter for subcutaneous doses and 50 mg per milliliter for intravenous doses. Patients were followed for a period of up to 24 weeks after the intravenous dose to allow for washout of evinacumab, and were offered enrollment in an extension study.
Pharmacodynamic Assessment: Fasting blood samples were collected before administration of study drug, at baseline and at regular intervals during the open-label treatment period and safety follow-up period, for measurement of LDL-C, non-HDL-C, total cholesterol, HDL-C, apolipoprotein B, lipoprotein (a), triglycerides, apolipoprotein A-1, and other parameters. The primary endpoint was the mean ±standard deviation (SD) percent change in LDL-C from baseline to week 4.

[1] = nine HoFH patients, baseline to week 4, given as a decrease
[2] = nine HoFH patients, between weeks 4 and 12

LDL-C, Mean of Percent Change from Baseline ± SE (%) (Week 5): −46.8 ± 5.1%
Non-HDL-C, Mean of Percent Change from Baseline ± SE (%) (Week 5): −46.6 ± 5.0%
Apolipoprotein B, Mean of Percent Change from Baseline ± SE (%) (Week 6): −43.1 ± 4.9%
LDL-C, Mean of Percent Change from Baseline ± SE (%) (Week 6): −52.1 ± 4.9%
Non-HDL-C, Mean of Percent Change from Baseline ± SE (%) (Week 6): −51.5 ± 4.8%
Apolipoprotein B, Mean of Percent Change from Baseline ± SE (%) (Week 8): −42.7 ± 4.8%
LDL-C, Mean of Percent Change from Baseline ± SE (%) (Week 8): −51.6 ± 6.0%
Non-HDL-C, Mean of Percent Change from Baseline ± SE (%) (Week 8): −50.6 ± 5.7%
LDL-C, Mean of Percent Change from Baseline ± SE (%) (Week 10): −45.6 ± 4.6%
Non-HDL-C, Mean of Percent Change from Baseline ± SE (%) (Week 10): −44.8 ± 4.4%
Apolipoprotein B, Mean of Percent Change from Baseline ± SE (%) (Week 12): −29.5 ± 7.2%
LDL-C, Mean of Percent Change from Baseline ± SE (%) (Week 12): −36.6 ± 6.4%
Non-HDL-C, Mean of Percent Change from Baseline ± SE (%) (Week 12): −36.4 ± 6.2%
LDL-C reached, Patient C (Patient C on high-dose statins, ezetimibe and lomitapide, week 4, 2 weeks after evinacumab intravenous administration): 15 mg per deciliter
reduction in LDL-C, Patient C (Patient C, concomitant lomitapide, 2 weeks after evinacumab intravenous administration): 90%
reduction in LDL-C, Patient G (Patient G, concomitant lomitapide, 2 weeks after evinacumab intravenous administration): 44%
triglycerides percent change, interquartile range (nine HoFH patients, baseline to week 4): −57% to −38%
HDL-C decreased by (percent change, mean±SD) [1]: 36±16%
apolipoprotein B decreased by (percent change, mean±SD) [1]: 46±18%
non-HDL-C decreased by (percent change, mean±SD) [1]: 49±22%
triglycerides decreased by (percent change, median) [1]: 47%
Overall mean±SD peak reduction in LDL-C [2]: -58+18% and −58±18%
absolute peak reduction in LDL-C [2]: 202 mg/dL
range of peak reduction in LDL-C (nine HoFH patients, between weeks 4 and 12, range across patients): -90% to-33%
absolute change from baseline in LDL-C (mean±SD) (nine HoFH patients, week 4): −157±90 mg per deciliter
mean±SD achieved LDL-C value (nine HoFH patients, week 4): 219±191 mg per deciliter
mean±SD percent change in LDL-C from baseline to week 4 (pre-specified primary endpoint) (nine HoFH patients, week 4): −49±23%
range of absolute change from baseline in LDL-C (nine HoFH patients, week 4, range across patients): −323 to −71 mg per deciliter
reduction in LDL-C achieved by one patient (one patient, week 4 (2 weeks after the intravenous dose)): greater than 80%
reduction in LDL-C, patient D (patient D, no lomitapide, week 4): −77%
Substance: evinacumab: human anti-ANGPTL3 monoclonal antibody; HCVR SEQ ID NO:1, LCVR SEQ ID NO:5
reductions in LDL-C from baseline in all patients (all nine patients, including the three homozygous null patients lacking LDLR activity): clinically meaningful reductions in LDL-C from baseline
normalization of LDL-C concentrations (evinacumab add-on therapy in HoFH participants): normalization of LDL-C concentrations in four HoFH participants
LDL-C decreased (primary endpoint) (nine HoFH adults on maximally-tolerated conventional therapies, week 4, given as a decrease): 49%
adverse events considered as related to the study medication (nine HoFH patients): Six events were considered as related to the study medication
adverse events leading to treatment discontinuation (nine HoFH patients): none led to treatment discontinuation
occurrence of at least one adverse event (nine HoFH patients): All nine patients reported the occurrence of at least one adverse event
serious adverse events (nine HoFH patients): One event (coronary artery disease due to underlying disease) was serious but was not considered as related to the study medication
